Substrate in data set [1]: N[C@@H](CCC(=O)N[C@@H](CSc1ccc([N+](=O)[O-])cc1[N+](=O)[O-])C(=O)NCC(=O)O)C(=O)O
Put plainly: ATP-dependent uptake of 3H-DNPSG into RLIP76-proteoliposomes, filtration. It counts as biochemical, Homo sapiens. To be noted: ATP co-substrate, 37°C, 5 min, random bi-bi fit, labelled compound.

Substrate in data set [2]: Nc1ncnc2c1ncn2[C@@H]1O[C@H](COP(=O)(O)OP(=O)(O)OP(=O)(O)O)[C@@H](O)[C@H]1O
Put plainly: ATP dependence of 3H-DNPSG uptake into RLIP76-proteoliposomes. It counts as biochemical, Homo sapiens. To be noted: co-substrate DNP-SG, 37°C, 5 min, random bi-bi fit.

B1: recombinant RLIP76 (Homo sapiens) (protein)
chain: MTECFLPPTSSPSEHRRVEHGSGLTRTPSSEEISPTKFPGLYRTGEPSPPHDILHEPPDVVSDDEKDHGKKKGKFKKKEKRTEGYAAFQEDSSGDEAESPSKMKRSKGIHVFKKPSFSKKKEKDFKIKEKPKEEKHKEEKHKEEKHKEKKSKDLTAADVVKQWKEKKKKKKPIQEPEVPQIDVPNLKPIFGIPLADAVERTMMYDGIRLPAVFRECIDYVEKYGMKCEGIYRVSGIKSKVDELKAAYDREESTNLEDYEPNTVASLLKQYLRDLPENLLTKELMPRFEEACGRTTETEKVQEFQRLLKELPECNYLLISWLIVHMDHVIAKELETKMNIQNISIVLSPTVQISNRVLYVFFTHVQELFGNVVLKQVMKPLRWSNMATMPTLPETQAGIKEEIRRQEFLLNCLHRDLQGGIKDLSKEERLWEVQRILTALKRKLREAKRQECETKIAQEIASLSKEDVSKEEMNENEEVINILLAQENEILTEQEELLAMEQFLRRQIASEKEEIERLRAEIAEIQSRQQHGRSETEEYSSESESESEDEEELQIILEDLQRQNEELEIKNNHLNQAIHEEREAIIELRVQLRLLQMQRAKAEQQAQEDEEPEWRGGAVQPPRDGVLEPKAAKEQPKAGKEPAKPSPSRDRKETSI
On to B1, for which the Km was found to be 55 ± 4 µM in data set [1] and 4400 ± 700 µM in data set [2].
